Target: HER2 (human, UniProt P04626 23-1255)
Test: cell-based or functional assay

B1: A49-F3′-TriNKET-Trastuzumab (bispecific antibody, human IgG1)
heavy: EVQLVESGGGLVKPGGSLRLSCAASGFTFSSYSMNWVRQAPGKGLEWVSSISSSSSYIYYADSVKGRFTISRDNAKNSLYLQMNSLRAEDTAVYYCARGAPMGAAAGWFDPWGQGTLVTVSSASTKGPSVFPLAPSSKSTSGGTAALGCLVKDYFPEPVTVSWNSGALTSGVHTFPAVLQSSGLYSLSSVVTVPSSSLGTQTYICNVNHKPSNTKVDKKVEPKSCDKTHTCPPCPAPELLGGPSVFLFPPKPKDTLMISRTPEVTCVVVDVSHEDPEVKFNWYVDGVEVHNAKTKPREEQYNSTYRVVSVLTVLHQDWLNGKEYKCKVSNKALPAPIEKTISKAKGQPREPQVCTLPPSRDELTENQVSLTCLVKGFYPSDIAVEWESNGQPENNYKTTPPVLDSDGSFFLYSWLTVDKSRWQQGNVFSCSVMHEALHNHYTQKSLSLSPG
chain: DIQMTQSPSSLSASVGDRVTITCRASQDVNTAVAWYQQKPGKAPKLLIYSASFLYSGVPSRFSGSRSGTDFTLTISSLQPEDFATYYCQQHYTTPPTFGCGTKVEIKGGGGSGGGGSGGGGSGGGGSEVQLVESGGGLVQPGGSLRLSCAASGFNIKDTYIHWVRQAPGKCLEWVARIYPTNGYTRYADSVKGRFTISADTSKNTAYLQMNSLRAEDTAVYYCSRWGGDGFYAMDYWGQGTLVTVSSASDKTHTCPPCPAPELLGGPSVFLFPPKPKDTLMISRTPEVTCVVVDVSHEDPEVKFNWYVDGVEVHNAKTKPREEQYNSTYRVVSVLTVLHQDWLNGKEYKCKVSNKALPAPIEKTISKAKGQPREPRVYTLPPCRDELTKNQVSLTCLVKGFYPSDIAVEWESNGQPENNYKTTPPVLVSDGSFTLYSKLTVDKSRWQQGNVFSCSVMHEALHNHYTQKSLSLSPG
light: DIQMTQSPSSVSASVGDRVTITCRASQGISSWLAWYQQKPGKAPKLLIYAASSLQSGVPSRFSGSGSGTDFTLTISSLQPEDFATYYCQQGVSFPRTFGGGTKVEIKRTVAAPSPPSDEQLKSGTASVVCLLNNFYPREAKVQWKVDNALQSGNSQESVTEQDSKDSTYSLSSTLTLSKADYEKHKVYACEVTHQGLSSPVTKSFNRGEC
EC50 in KHYG-1-CD16V cell killing of Hs578T cells (DELFIA cytotoxicity assay): 0.376 nM
EC50 in KHYG-1-CD16V cell-mediated cytolysis of BT-20 cells (DELFIA cytotoxicity assay): 1.16 nM
EC50 in NK cell-mediated killing of MCF-7 cells (DELFIA cytotoxicity assay): 0.878 nM
EC50 in NK cell-mediated lysis of ZR75-1 cells (DELFIA cytotoxicity assay): 0.043 nM
EC50 in enhancing NK cell-mediated cytolysis of SKBR-3 cells (DELFIA cytotoxicity assay, 3 healthy donors): 0.008 nM
EC50 in inducing NK cell-mediated lysis of 786-0 cells (DELFIA cytotoxicity assay): 0.638 nM
EC50 in triggering NK cell-mediated killing of H661 cells (DELFIA cytotoxicity assay): 0.054 nM
fold higher potency than trastuzumab in triggering NK cell-mediated killing of SKBR-3 cells: 2.5 fold
